The target of the experiment is T1, S1-69/70 DelFc (SARS-CoV-2, UniProt P0DTC2 14-685).
T1 construct: domain: S1
Description: Fc-tagged protein on receptor-expressing HEK293T cells (FIG. 13A).

B1: Dendritic cell-specific intercellular adhesion molecule-3-grabbing nonintegrin expressed on cells (receptor)
chain: MSDSKEPRLQQLGLLEEEQLRGLGFRQTRGYKSLAGCLGHGPLVLQLLSFTLLAGLLVQVSKVPSSISQEQSRQDAIYQNLTQLKAAVGELSEKSKLQEIYQELTQLKAAVGELPEKSKLQEIYQELTRLKAAVGELPEKSKLQEIYQELTWLKAAVGELPEKSKMQEIYQELTRLKAAVGELPEKSKQQEIYQELTRLKAAVGELPEKSKQQEIYQELTRLKAAVGELPEKSKQQEIYQELTQLKAAVERLCHPCPWEWTFFQGNCYFMSNSQRNWHDSITACKEVGAQLVVIKSAEEQNFLQLQSSRSNRFTWMGLSDLNQEGTWQWVDGSPLLPSFKQYWNRGEPNNVGEEDCAEFSGNGWNDDKCNLAKFWICKKSAASCSRDEEQFLSPAPATPNPPPA
notes: whole, on cells; also called DC-SIGN; CD209
On to B1, for which the binding result is “binds”.

B2: C-type lectin domain family 10 member A expressed on cells (receptor)
chain: MTRTYENFQYLENKVKVQGFKNGPLPLQSLLQRLCSGPCHLLLSLGLGLLLLVIICVVGFQNSKFQRDLVTLRTDFSNFTSNTVAEIQALTSQGSSLEETIASLKAEVEGFKQERQAGVSELQEHTTQKAHLGHCPHCPSVCVPVHSEMLLRVQQLVQDLKKLTCQVATLNNNASTEGTCCPVNWVEHQDSCYWFSHSGMSWAEAEKYCQLKNAHLVVINSREEQNFVQKYLGSAYTWMGLSDPEGAWKWVDGTDYATGFQNWKPGQPDDWQGHGLGGGEDCAHFHPDGRWNDDVCQRPYHWVCEAGLGQTSQESH
notes: whole, on cells; also called CLEC10A
Consider B2, for which the binding result was “binds”.

B3: Asialoglycoprotein Receptor 1 expressed on cells (receptor)
chain: MTKEYQDLQHLDNEESDHHQLRKGPPPPQPLLQRLCSGPRLLLLSLGLSLLLLVVVCVIGSQNSQLQEELRGLRETFSNFTASTEAQVKGLSTQGGNVGRKMKSLESQLEKQQKDLSEDHSSLLLHVKQFVSDLRSLSCQMAALQGNGSERTCCPVNWVEHERSCYWFSRSGKAWADADNYCRLEDAHLVVVTSWEEQKFVQHHIGPVNTWMGLHDQNGPWKWVDGTDYETGFKNWRPEQPDDWYGHGLGGGEDCAHFTDDGRWNDDVCQRPYRWVCETELDKASQEPPLL
notes: whole, on cells; also called ASGR1
As for B3, the binding result is reported as “binds”.

B4: Liver and lymph node sinusoidal endothelial cell C-type lectin expressed on cells (receptor)
chain: MDTTRYSKWGGSSEEVPGGPWGRWVHWSRRPLFLALAVLVTTVLWAVILSILLSKASTERAALLDGHDLLRTNASKQTAALGALKEEVGDCHSCCSGTQAQLQTTRAELGEAQAKLMEQESALRELRERVTQGLAEAGRGREDVRTELFRALEAVRLQNNSCEPCPTSWLSFEGSCYFFSVPKTTWAAAQDHCADASAHLVIVGGLDEQGFLTRNTRGRGYWLGLRAVRHLGKVQGYQWVDGVSLSFSHWNQGEPNDAWGRENCVMMLHTGLWNDAPCDSEKDGWICEKRHNC
notes: whole, on cells; also called LSECtin; CLEC4G
Consider B4, for which the binding result was “binds”.

B5: Liver/lymph node-specific intercellular adhesion molecule-3-grabbing integrin expressed on cells (receptor)
chain: MSDSKEPRVQQLGLLEEDPTTSGIRLFPRDFQFQQIHGHKSSTGCLGHGALVLQLLSFMLLAGVLVAILVQVSKVPSSLSQEQSEQDAIYQNLTQLKAAVGELSEKSKLQEIYQELTQLKAAVGELPEKSKLQEIYQELTRLKAAVGELPEKSKLQEIYQELTRLKAAVGELPEKSKLQEIYQELTRLKAAVGELPEKSKLQEIYQELTELKAAVGELPEKSKLQEIYQELTQLKAAVGELPDQSKQQQIYQELTDLKTAFERLCRHCPKDWTFFQGNCYFMSNSQRNWHDSVTACQEVRAQLVVIKTAEEQNFLQLQTSRSNRFSWMGLSDLNQEGTWQWVDGSPLSPSFQRYWNSGEPNNSGNEDCAEFSGSGWNDNRCDVDNYWICKKPAACFRDE
notes: whole, on cells; also called L-SIGN; CLEC4M
Turning to B5, the binding result is “binds”.
